In the supplement of paper PMC10567573:

B1: RHOBTB2 (parent)
chain: LYTGELDENERDLMHIAHIAELLE
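Note: lentivirally expressed fusions sorted by FACS into six bins by GFP to DsRed ratio, PSI derived from sequencing read proportions per bin multiplied by bin number.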

Variants of: B1
Test: protein stability index of a GFP-peptide fusion (GPS, HEK-293T) (PSI 1-6); higher = more stable
Conditions: c terminus: a fixed tail appended
In the case of I16N, the protein stability index is reported as 3.54. For I16D, the protein stability index was 4.12. Work on I16P yielded a protein stability index of 4.15. In the case of I16A, the protein stability index is reported as 4.07. For I16C, the protein stability index was 3.77. I16L showed a protein stability index of 2.09. I16M showed a protein stability index of 2.51. In the case of I16H, the protein stability index is reported as 3.76. In the case of I16T, the protein stability index is reported as 3.62. Work on I16G yielded a protein stability index of 4.06. I16Q gave a protein stability index of 3.87. With I16K the protein stability index was 4.05. For I16F, the protein stability index was 2.71. Work on I16E yielded a protein stability index of 4.85. Variant I16V has a protein stability index of 2.76. With I16Y the protein stability index was 2.93. With I16W the protein stability index was 3.16. I16R showed a protein stability index of 4.43. In the case of I16S, the protein stability index is reported as 3.9. With D12F the protein stability index was 2.78. With D12C the protein stability index was 2.53. D12K gave a protein stability index of 3.02. Work on D12Q yielded a protein stability index of 2.4. Variant D12P has a protein stability index of 2.43. D12Y gave a protein stability index of 1.66. With D12H the protein stability index was 3.13. In the case of D12W, the protein stability index is reported as 2.49. D12V showed a protein stability index of 2.96. Work on D12E yielded a protein stability index of 2.47. D12T gave a protein stability index of 2.43. With D12I the protein stability index was 3.03. In the case of D12G, the protein stability index is reported as 2.74. Work on D12S yielded a protein stability index of 2.56. With D12N the protein stability index was 3.12. In the case of D12M, the protein stability index is reported as 2.95. D12A gave a protein stability index of 2.01. D12L showed a protein stability index of 3.07. Work on H18F yielded a protein stability index of 1.72. Work on H18G yielded a protein stability index of 3.76. Work on H18I yielded a protein stability index of 2.65. H18D gave a protein stability index of 2.87. Work on H18A yielded a protein stability index of 1.65. Work on H18E yielded a protein stability index of 3.32. H18C showed a protein stability index of 2.41. H15I showed a protein stability index of 1.93. H15C showed a protein stability index of 2.13. In the case of H15T, the protein stability index is reported as 1.53. In the case of H15D, the protein stability index is reported as 3.36. For H15M, the protein stability index was 1.86. H15E gave a protein stability index of 2.76. Work on H15A yielded a protein stability index of 1.74. Work on H15N yielded a protein stability index of 2.63. Variant H15V has a protein stability index of 1.62. Work on H15Y yielded a protein stability index of 1.67. In the case of H15K, the protein stability index is reported as 2.21. For H15W, the protein stability index was 2.47. Variant H15F has a protein stability index of 2.46. Work on H15P yielded a protein stability index of 3.23. H15R gave a protein stability index of 2.42. Work on H15S yielded a protein stability index of 2.54. Work on H15L yielded a protein stability index of 1.5. Variant H15Q has a protein stability index of 2.4. Work on H15G yielded a protein stability index of 2.78. E10F gave a protein stability index of 2.53. E10W gave a protein stability index of 2.41. Variant E10S has a protein stability index of 1.98. With E10Y the protein stability index was 1.95. E10M showed a protein stability index of 1.68. With E10P the protein stability index was 1.88. With E10R the protein stability index was 2.58. Variant E10N has a protein stability index of 2.83. E10D showed a protein stability index of 2.87. With E10G the protein stability index was 2.02. E10T gave a protein stability index of 2.66. Work on E10V yielded a protein stability index of 1.89. In the case of E10K, the protein stability index is reported as 1.94. For E10C, the protein stability index was 2.6. E10Q gave a protein stability index of 2.61. E10L showed a protein stability index of 2.24. Work on E10A yielded a protein stability index of 2.58. Variant E10H has a protein stability index of 2.05. Work on E10I yielded a protein stability index of 2.26. R11I gave a protein stability index of 2.57. In the case of R11Q, the protein stability index is reported as 1.96. Work on R11L yielded a protein stability index of 1.77. Variant R11A has a protein stability index of 2.27. R11W showed a protein stability index of 2.04. R11Y showed a protein stability index of 2.42. R11M showed a protein stability index of 1.96. R11F showed a protein stability index of 1.83. Work on R11C yielded a protein stability index of 2.66. Variant R11N has a protein stability index of 2.1. R11H showed a protein stability index of 2.39. R11K showed a protein stability index of 2.77. Variant R11V has a protein stability index of 2.04. R11D showed a protein stability index of 2.9. R11S showed a protein stability index of 2.5. In the case of R11G, the protein stability index is reported as 3.32. R11E showed a protein stability index of 2.44. For R11P, the protein stability index was 2.67. Variant R11T has a protein stability index of 2.14. Work on N9P yielded a protein stability index of 2.03. N9T showed a protein stability index of 2.71. In the case of N9M, the protein stability index is reported as 1.86. N9V showed a protein stability index of 1.89. For N9R, the protein stability index was 2.79. Work on N9K yielded a protein stability index of 2.68. Work on N9S yielded a protein stability index of 2.19. Variant N9Q has a protein stability index of 2.25. N9L gave a protein stability index of 1.51. In the case of N9Y, the protein stability index is reported as 1.64. For M14N, the protein stability index was 3.52. Work on M14K yielded a protein stability index of 2.89. M14A showed a protein stability index of 2.39. Work on M14H yielded a protein stability index of 3.1. In the case of M14Q, the protein stability index is reported as 2.39. M14G showed a protein stability index of 3.36. Variant M14T has a protein stability index of 3.04. Work on M14V yielded a protein stability index of 2.16. Variant M14W has a protein stability index of 1.82. M14F showed a protein stability index of 2.54. For M14C, the protein stability index was 2.45. M14S showed a protein stability index of 3.8. For M14D, the protein stability index was 3.41. Work on M14L yielded a protein stability index of 2.58. In the case of M14Y, the protein stability index is reported as 2.01. In the case of M14P, the protein stability index is reported as 3.48. M14I showed a protein stability index of 2.84. For M14R, the protein stability index was 2.36. For A17N, the protein stability index was 2.92. For A17I, the protein stability index was 2.1. In the case of A17S, the protein stability index is reported as 3.02. Variant A17M has a protein stability index of 1.41. Variant A17Q has a protein stability index of 2.95. For A17Y, the protein stability index was 1.93. Work on A17G yielded a protein stability index of 2.77. With A17V the protein stability index was 1.66. A17E gave a protein stability index of 2.17. With A17H the protein stability index was 3.58. Variant A17K has a protein stability index of 2.72. Work on A17L yielded a protein stability index of 1.45. In the case of A17P, the protein stability index is reported as 3.85. With A17C the protein stability index was 1.77. A17D gave a protein stability index of 3.28. In the case of A17W, the protein stability index is reported as 1.87. A17R showed a protein stability index of 2.7. For A17T, the protein stability index was 1.82. A17F gave a protein stability index of 2.38. L13V gave a protein stability index of 3.22. L13W gave a protein stability index of 2.65. L13G gave a protein stability index of 3.74. In the case of L13F, the protein stability index is reported as 3.13. In the case of L13S, the protein stability index is reported as 3.12. Variant L13H has a protein stability index of 3.58. L13N showed a protein stability index of 3.28. Work on L13M yielded a protein stability index of 2.92. Work on L13Q yielded a protein stability index of 3.29. Variant L13I has a protein stability index of 2.38. Work on L13C yielded a protein stability index of 3.45. L13Y showed a protein stability index of 2.59. In the case of L13P, the protein stability index is reported as 4.82. Variant L13E has a protein stability index of 3.44. L13K gave a protein stability index of 3.1. Work on L13R yielded a protein stability index of 3.06. L13A showed a protein stability index of 3.08. For L13T, the protein stability index was 3.34. For L13D, the protein stability index was 3.12.
